Reference: patent US20140017267A1, “METALLOPROTEINASE OLIGOPEPTIDES AND THEIR THERAPEUTIC USE” (priority 2012, published 2014)

Columns and labels:
[1] = Testing of peptide solubility; assay type: physicochemical
[2] = Testing of peptide solubility; assay type: physicochemical; conditions: 8M Urea, final concentration 1.1 mg/ml (first solubility table, headed TABLE 1)
Procedure: Testing of peptide solubility: Data for peptide solubility are represented in Table 1 and 2. Peptides SEQ ID 5-21 was dissolved in 8M Urea to a final concentration of 1.1 mg/ml.

[3] = system: BALB/c female mouse; experiment: Immune response to individual peptide: immunization of mice, indirect solid-phase immunoenzymatic assay of antiserum (A450); assay type: in vivo; conditions: for OD 450 Mean values (n = 3-5) for dilution 1:10,000: antiserum of mice immunized i.p. with 100 μg peptide+Str-HRP, day 38 bleed, serum dilution 1:10,000; for immune response: comparison among the 17 peptides
Procedure: Peptides were dissolved in appropriate volume 8M Urea and additional solution. Final concentration of peptide-Str-HRP solution was 0.8 mg/ml and 0.6 mg/ml for peptide and Str-HRP, respectively. After dissolving, 4 aliquotes in 0.2 ml portions were taken from each peptide solution, mixed with 0.6 ml Str-HRP and incubated over night at +4° C. Conjugate peptide with carrier protein (Str-HRP) was frozen and stored at −20° C. until further use. Final concentration of urea in peptide-Str-HRP solution was 2M for all peptides.
Day 0: Immunization with complete Freund's adjuvant Day 7: Booster with incomplete Freund's adjuvant Day 14: Booster with incomplete Freund's adjuvant Day 28: Booster with incomplete Freund's adjuvant Day 38: Terminal bleed
Method of Immunization: Frozen 0.8 ml aliquotes of peptide+Str-HRP conjugate were thawed at room temperature (RT) and mixed with 0.8 ml of appropriate adjuvant. Adjuvant was added and mixed by vortexing immediately before injections were given. Immunization was done by using intra peritoneal injections with 100 μg peptide per animal in final volume 250 μl of 1:1 (v:v) peptide+Str-HRP:adjuvant. Five animals were used per peptide.
Preparation of serum: At 38 days, the mouse was bled. Blood was collected in 2-ml microcentrifuge tube and the blood was allowed to clot at room temperature for 1 hour. Centrifugation using the microcentrifuge tube with the clot inside was done for 15 min at 2500 g and serum was collected. Volume for each sample was no less than 400 μl. The serum was stored at −20° C.
Testing immune response to individual peptide: Determination of mouse antibodies to peptide based on indirect solid-phase immunoenzymatic assay with avidin on solid-phase was performed. Materials used were 96-well polystyrene plates high binding (#9018 Costar, USA), all solution for ELISA: sample diluent (10 mM sodium phosphate, 500 mM NaCl, 0.5% BSA, 0.05% Tween-20, pH 7.4), conjugate diluent (10 mM sodium phosphate, 150 mM NaCl, 0.5% BSA, 0.05% Tween-20, pH 7.4), wash fluid (10 mM sodium phosphate, 300 mM NaCl, 0.05% Tween-20, pH 7.4), substrate buffer (50 mM sodium citrate and hydrogen peroxide, pH 5.0), TMB solution (3,3′,5,5′-tetramethylbenzidine), stop solution (2M sulphuric acid) were taken from EIA Kit for detection of antibody to HIV “Peptoscreen-2” (Amercard Ltd, Russia), conjugate of rabbit antibody to mouse IgG with HRPO (custom made), avidin from egg white (Imtek, Russia). Negative controls of 5 sera were pooled from the nonimmune BALB/c female mouse. Dispensing of solutions with Finnpipette digital adjustable volume pipettes 0.5-10 μl, 5-40 μl, 20-200 μl, 200-1000 μl, 1-5 ml and 12-channel pipettes 5-50 μl, 50-200 μl. Plate washer ZLE201 (Amersham Inc., UK), incubator at 37° C.—Imperial II (Lab-Line Instruments Inc., USA), EIA plate reader—Luminometer-Photometer LM01A (Immunotech, Beckman Coulter Company, USA).
Test procedure: Peptides for binding on the avidin-coated plate were taken from test-solution for determining the solubility of peptides (chapter 1.3., table 1 and 2) and were dissolved up to 2 mM in sample diluents immediately before the test procedure as shown in Table 3.
EIA plates were coated by adding to a well containing 100 μl of avidin dissolved 10 μg/ml in 50 mM carbonate buffer, pH 9.5 and incubated for 20 h at 20° C. The plates were washed 4 times with wash fluid. Peptides 2 mM, […] in sample diluent and incubated 60 min at 37° C. Control wells contain avidin. The plates were washed 4 times with wash fluid. Serum from each mouse and negative control were diluted 1:100, 1:1000 and 1:10000 in sample diluents and were added to the wells, coated by the corresponding peptide (100 μl per well) and incubated for 1 h at 37° C. The plates were washed 4 times with wash fluid. Conjugates of rabbit anti-mouse IgG antibody with HRPO (dilution of 1:3000 in conjugate diluent) were added to the wells (100 μl per well). The plates were incubated for 0.5 h at 37° C. […]

[4] = 8M Urea, larger weights (TABLE 2), no additional solution

Row | Substance | Solubility [1, 4] | Solubility [2] | OD 450 Mean values (n = 3-5) for dilution 1:10,000 [3] | Solubility ([1]; 8M Urea plus equal volume 0.1M Na-carbonate buffer, pH 9.5 (TABLE 2)) | immune response [3]
1 | H-RILAVERYLKDQQLLGIWGCSGKLICTTAVPWNAS-OH (cysteine pairing not given here) [SP35, reference compound] | Soluble | – | – | – | –
2 | SEQ ID 5: Mouse MMP-9 synthetic oligopeptide, sequence DKDGKFGF | Soluble | Soluble | 0.845 | – | –
3 | SEQ ID 6: Bovine MMP-9 synthetic oligopeptide, sequence DADRQFGF | Soluble | Soluble | 0.096 | – | –
4 | SEQ ID 7: Rat MMP-9 synthetic oligopeptide, sequence DTDRKYGF | Soluble | Soluble | 1.610 | – | –
5 | SEQ ID 8: Carp MMP-9 synthetic oligopeptide, sequence DKDKIFGF | Soluble | Soluble | 0.097 | – | –
6 | SEQ ID 9: Pufferfish MMP-9 synthetic oligopeptide, sequence DKDKKYGF | Soluble | Soluble | 0.131 | – | –
7 | SEQ ID 10: Rabbit MMP-9 synthetic oligopeptide, sequence DTDRRFGF | Soluble | Soluble | – | – | –
8 | SEQ ID 11: Mouse MMP-9 synthetic oligopeptide, sequence DKDGKFGF (printed identical to SEQ ID 5) | Soluble | Soluble | 0.183 | – | –
9 | SEQ ID 12: Rat MMP-9 synthetic oligopeptide, sequence CHFPFTFEGRSYLSC | – | Insoluble | 0.661 | Soluble | –
10 | SEQ ID 13: Chicken MMP-9 synthetic oligopeptide, sequence CHFPFIFEGRSYSRC | Soluble | Soluble | – | – | most active
11 | SEQ ID 14: European Carp MMP-9 synthetic oligopeptide, sequence CHFPFLFEGTSYSSC | Soluble | Soluble | 0.394 | – | –
12 | SEQ ID 15: Pufferfish MMP-9 synthetic oligopeptide, sequence CHFPFRFQNKPYKHC | Soluble | Soluble | – | – | most active
13 | SEQ ID 16: Flounder MMP-9 synthetic oligopeptide, sequence CHFPFTFEGKSYTSC | Soluble | Soluble | 0.823 | – | –
14 | SEQ ID 17: Bovine MMP-9 synthetic oligopeptide, sequence DQDKLYGFCPTRVDA | Soluble | Soluble | 0.780 | – | –
15 | SEQ ID 18: Rat MMP-9 synthetic oligopeptide, sequence DKADGFCPTRADVTV | Soluble | Soluble | 0.138 | – | –
16 | SEQ ID 19: Mouse MMP-9 synthetic oligopeptide, sequence DQDKLYGFCPTRVDA (printed identical to SEQ ID 17) | Soluble | Soluble | 0.818 | – | –
17 | SEQ ID 20: Carp MMP-9 synthetic oligopeptide, sequence DKKYGFCPNRDTAVI | Soluble | Soluble | 0.138 | – | –
18 | SEQ ID 21: Rabbit MMP-9 synthetic oligopeptide, sequence DKDKLYGFCPTRADS | Soluble | Soluble | 0.411 | – | –
